Test results as given in patent US20160152995A1, “METHODS AND COMPOSITIONS TO IMPROVE THE SPREAD OF CHEMICAL SIGNALS IN PLANTS” (PIONEER HI-BRED INTERNATIONAL, INC., priority 2013, published 2016).
Residue numbers refer to the chain shown, from its start.

B1: L8-3B08 (protein)
chain: MARLDKSKVINSALELLNEVGIEGLTTRKLAQKLGVEQPTLYWHVKNKRALLDALAIEMMDRHQTHYSPLEGESWQDFLRNNAKSLRCALLSHRDGAKVCLGTRWTEQQYESAENMLAFLTQQGFSLENALYAVDAARVFTLGWVLFDQESQVAKEERETPTTDSMPPLLRQAWELKDHQGAEPAFLFGLELIIRGLEKQLKRESGS
modifications: Sulfonylurea responsive repressor
B2: L8-1B12 (protein)
chain: B1 chain with L86W, V134L, D135E, A137V, R195A, R203A
modifications: Sulfonylurea responsive repressor
B3: L8-3D03 (protein)
chain: B1 chain with S68L, L86C, C88N, V134L, A137V, W144A, R203S
modifications: Sulfonylurea responsive repressor
B4: L8-2F12 (protein)
chain: B1 chain with L86C, C88N, V134L, D135Q, A137V, R203S
modifications: Sulfonylurea responsive repressor
B5: L8-3F02 (protein)
chain: B1 chain with L86C, C88R, T121C, D135S, A137V, V139I, W144A, R195A
modifications: Sulfonylurea responsive repressor
B6: L8-3E05 (protein)
chain: B1 chain with S68C, V134L, D135Q, A137V, V139I, W144C
modifications: Sulfonylurea responsive repressor
B7: L8-3A05 (protein)
chain: B1 chain with L86C, C88N, D135S, A137V, W144A, R195S, R203S
modifications: Sulfonylurea responsive repressor
B8: L8-3A04 (protein)
chain: B1 chain with L86C, C88R, D135S, A137V, W144A, S205C
modifications: Sulfonylurea responsive repressor
B9: L8-1A03 (protein)
chain: B1 chain with L86C, C88N, V134L, A137V, W144A, R195A
modifications: Sulfonylurea responsive repressor
B10: L8-3A07 (protein)
chain: B1 chain with L86M, D135S, A137V, R195A
modifications: Sulfonylurea responsive repressor
B11: L8-1A06 (protein)
chain: B1 chain with L86C, C88R, L90V, D135S, A137V, W144A, R195A
modifications: Sulfonylurea responsive repressor
B12: L8-2H01 (protein)
chain: B1 chain with L86C, C88R, V134L, D135E, A137V, W144A
modifications: Sulfonylurea responsive repressor
B13: L8-3F08 (protein)
chain: B1 chain with L86C, C88N, C100V, L131M, V134L, D135E, V139I, R203S
modifications: Sulfonylurea responsive repressor
B14: L8-3A06 (protein)
chain: B1 chain with S68L, L86C, C88N, D135S, A137V, W144A, R195S
modifications: Sulfonylurea responsive repressor
B15: L8-1E04 (protein)
chain: B1 chain with S68L, L86C, C88N, D135S, A137V, W144A, F147Y, R203A
modifications: Sulfonylurea responsive repressor
B16: L8-1A05 (protein)
chain: B1 chain with L86C, C88R, A137V, W144A, R195A, R203A
modifications: Sulfonylurea responsive repressor
B17: L8-3B03 (protein)
chain: B1 chain with S68L, L86C, C88R, D135S, A137V, W144A, R203S
modifications: Sulfonylurea responsive repressor

tested on: E. coli assay strain Km3; type: cell-based; settings: library L8 hits; M9 Xgal colony assay; 200 ppb Chlorsulfuron; 24 hrs
Protocol: Library L6 was assembled, rescued, ligated into pVER7314, transformed into E. coli KM3 and plated out onto LB carbenicillin/kanamycin, and carbenicillin only control media as before. Library plates were then picked into 42 384-well microtiter plates (˜16,000 clones) containing 60 μl LB carbenicillin (Cb) broth per well. After overnight growth at 37° C. the cultures were stamped onto M9 assay plates containing no inducer, 0.2 ppm, and 2.0 ppm chlorsulfuron as test inducer. Following incubation at 30° C. for ˜48 hrs, putative hits responding to chlorsulfuron treatment as determined by increased blue colony color were re-arrayed into six 96-well microtiter plates and used to stamp a fresh set of M9 assay plates to confirm the above results. For a more detailed analysis of the relative induction by chlorsulfuron, digital photographs were taken of the plates after various time points of incubation at 30° C. and colony color intensity measured using the digital image analysis freeware program ImageJ (Rasband, US National Institutes of Health, Bethesda, Md., USA, rsb.info.nih.gov/ij/, 1997-2007). […] From this analysis sequence-activity relationships were derived. […] Briefly, C at position 100, and Q at positions 108 and 109 strongly correlated with activation, while R at position 138, L at position 170, and A or G at position 173 were highly preferred in clones with the lowest background activity. […] This information will aid in the design of further libraries to improve responsiveness to chlorsulfuron.
Library L8 construction and screening. Fourth round shuffling incorporated the best diversity from Rd3 shuffling (BB1860) as well as computational diversity (Table 14). As diversity was very high the library oligo mix was spiked into the parental hit variant oligo mix (5, 10, and 25% mixes) to titer down the number of residue changes per clone. In addition, to varying residues for Cs activity, seven residues (C68, C86, C88, C121, C144, C195, and C203) were varied with TetR family phylogenetic substitutions in an attempt to reduce the number of cysteine residues in the repressor. The PCR assembled libraries were cloned Sac1/Asc1 into pVER7334. This plasmid encodes PBAD promoter controlled expression of a plant optimized TetR DNA binding domain fused to the wt ligand binding domain of TetR(B) encoded by native Tn10 sequence on a Sac1 to Asc1 fragment. Approximately 15,000 clones were screened for blue colony color on the M9 Xgal assay plates +/−200 ppb Chlorsulfuron (Cs). Clones were ranked by ratio of color with inducer after 24 hrs incubation over colony color without inducer for 48 hrs of incubation. The sequence trend in the overall larger population of hits (first re-array) was that L55, R104, W105 and L170 were maintained while the C144A substitution was highly preferred. Sequence trends within the hit population were then noted with respect to repression, induction and fold induction (which corrects for leakiness).
Mutagenesis reactions were transformed into library strain Km3 and 96 colonies tested for substitution by DNA sequence analysis. Substitutions representing each possible residue at each position were then re-arrayed in triplicate onto M9 X-gal assay plates with 0, 20 and 200 ppb Chlorsulfuron. Plates were incubated at 37° C. for 24 and 48 hrs prior to imaging. Residue substitutions were then ranked by activation (emphasis on 20 ppb Cs) and repression characteristics (emphasis on 48 hr time point). The mutation with the greatest impact on activity was substitution of residue N82 to phenylalanine or tyrosine. […] All other preferred substitutions shown in Table 18 either improved repression or improved sensitivity to inducer without compromising repressor function. Certain residues were indispensible to function such as R104, W105, and W174 as substitutions were not allowed. Other residue positions such as R138 and K177 were also flagged as critical since functional substitutions were extremely limited. […]

Molecule	IND = induction with 200 ppb Cs at 24 hrs (blue colony color intensity thru ImageJ analysis)
B1	13.0
B2	12.5
B3	5.9
B4	2.7
B5	3.4
B6	1.4
B7	0.3
B8	0.5
B9	8.6
B10	0.7
B11	2.1
B12	12.9
B13	1.5
B14	0.3
B15	1.5
B16	10.8
B17	0.6

same assay, conditions: library L8 hits; M9 Xgal colony assay; ratio IND (200 ppb Cs, 24 hrs) / REP (48 hrs)

Molecule	F. IND = fold induction: induction with 200 ppb Cs at 24 hrs/repression at 48 hrs
B1	6.1
B2	5.1
B3	4.9
B4	3.6
B5	3.5
B6	3.4
B7	3.3
B8	3.3
B9	3.1
B10	2.9
B11	2.7
B12	2.7
B13	2.7
B14	2.6
B15	2.5
B16	2.5
B17	2.4

same assay, conditions: library L8 hits; M9 Xgal colony assay; without inducer; 48 hrs

Molecule	REP = repression measured without inducer after 48 hrs (blue colony color intensity thru ImageJ analysis)
B1	2.1
B2	2.4
B3	1.2
B4	0.7
B5	1.0
B6	0.4
B7	0.1
B8	0.1
B9	2.8
B10	0.2
B11	0.8
B12	4.8
B13	0.6
B14	0.1
B15	0.6
B16	4.4
B17	0.3
